Molecular target: T1, human RAGE-Fc fusion protein (human, UniProt Q15109 23-344)
T1 construct: also called hRAGE-Fc; huRAGE-Fc; not shown: Fc domain of human IgG
Test: competition ELISA on human RAGE-Fc; labelled competitor not named

| Binder | ED50 [nM] |
| --- | --- |
| mVH / v2.0 (V2, L4, S48) (antibody, V domains shown, XT-H2 construct expressed in COS cells; also called XT-H2 mVH + hVL V2.0) VH: QVQLQQSGAELAKPGASVKMSCKASGYTFTTYWMHWVKQRPGQGLYWIGYINPSTGYTEYNQKFKDKATLTADKSSSTAYMQLSSLTSEDSAVYYCARWAGYTIDYWGQGTSVTVSS VL: DVVLTQTPLSLSVTPGQPASISCKSTKSLLNSDGFTYLDWYLQKPGQSPQLLIYLVSDRFSGVPDRFSGSGSGTDFTLKISRVEAEDVGVYYCFQSNSLPLTFGGGTKVEIK | 7 |
| V2.0 (R40, Y46, I48, A71, K73) / v2.0 (V2, L4, S48) (antibody, V domains shown, XT-H2 construct expressed in COS cells; also called XT-H2 hVH V2.0 + hVL V2.0) VH: QVQLVQSGAEVKKPGASVKVSCKASGYTFTTYWMHWVRQRPGQGLYWIGYINPSTGYTEYNQKFKDRVTMTADTSISTAYMELSRLRSDDTAVYYCARWAGYTIDYWGQGTLVTVSS VL: DVVLTQTPLSLSVTPGQPASISCKSTKSLLNSDGFTYLDWYLQKPGQSPQLLIYLVSDRFSGVPDRFSGSGSGTDFTLKISRVEAEDVGVYYCFQSNSLPLTFGGGTKVEIK | 5 |
| V2.0 (R40, Y46, I48, A71, K73) / mVL (antibody, V domains shown, XT-H2 construct expressed in COS cells; also called XT-H2 hVH V2.0 + mVL) VH: QVQLVQSGAEVKKPGASVKVSCKASGYTFTTYWMHWVRQRPGQGLYWIGYINPSTGYTEYNQKFKDRVTMTADTSISTAYMELSRLRSDDTAVYYCARWAGYTIDYWGQGTLVTVSS VL: DVVLTQTPLSLPVNIGDQASISCKSTKSLLNSDGFTYLDWYLQKPGQSPQLLIYLVSDRFSGVPDRFSGSGSGTDFTLTISRVEAEDLGVYYCFQSNSLPLTFGSGTKLEIK | 8 |
| V2.0 (R40, Y46, I48, A71, K73) / v2.1 (V2I, L4M) (antibody, V domains shown, XT-H2 construct expressed in COS cells; also called XT-H2 hVH V2.0 + hVL V2.1) VH: QVQLVQSGAEVKKPGASVKVSCKASGYTFTTYWMHWVRQRPGQGLYWIGYINPSTGYTEYNQKFKDRVTMTADTSISTAYMELSRLRSDDTAVYYCARWAGYTIDYWGQGTLVTVSS VL: DIVMTQTPLSLSVTPGQPASISCKSTKSLLNSDGFTYLDWYLQKPGQSPQLLIYLVSDRFSGVPDRFSGSGSGTDFTLKISRVEAEDVGVYYCFQSNSLPLTFGGGTKVEIK | 5 |
| V2.1 (R40A) / mVL (antibody, V domains shown, XT-H2 construct expressed in COS cells; also called XT-H2 hVH V2.1 + mVL) VH: QVQLVQSGAEVKKPGASVKVSCKASGYTFTTYWMHWVRQAPGQGLYWIGYINPSTGYTEYNQKFKDRVTMTADTSISTAYMELSRLRSDDTAVYYCARWAGYTIDYWGQGTLVTVSS VL: DVVLTQTPLSLPVNIGDQASISCKSTKSLLNSDGFTYLDWYLQKPGQSPQLLIYLVSDRFSGVPDRFSGSGSGTDFTLTISRVEAEDLGVYYCFQSNSLPLTFGSGTKLEIK | 8 |
| V2.1 (R40A) / v2.0 (antibody, V domains shown, XT-H2 construct expressed in COS cells; also called XT-H2 hVH V2.1 + hVL V2.0) VH: QVQLVQSGAEVKKPGASVKVSCKASGYTFTTYWMHWVRQAPGQGLYWIGYINPSTGYTEYNQKFKDRVTMTADTSISTAYMELSRLRSDDTAVYYCARWAGYTIDYWGQGTLVTVSS VL: DVVLTQTPLSLSVTPGQPASISCKSTKSLLNSDGFTYLDWYLQKPGQSPQLLIYLVSDRFSGVPDRFSGSGSGTDFTLKISRVEAEDVGVYYCFQSNSLPLTFGGGTKVEIK | 4 |
| V2.1 (R40A) / v2.1 (antibody, V domains shown, XT-H2 construct expressed in COS cells; also called XT-H2 hVH V2.1 + hVL V2.1) VH: QVQLVQSGAEVKKPGASVKVSCKASGYTFTTYWMHWVRQAPGQGLYWIGYINPSTGYTEYNQKFKDRVTMTADTSISTAYMELSRLRSDDTAVYYCARWAGYTIDYWGQGTLVTVSS VL: DIVMTQTPLSLSVTPGQPASISCKSTKSLLNSDGFTYLDWYLQKPGQSPQLLIYLVSDRFSGVPDRFSGSGSGTDFTLKISRVEAEDVGVYYCFQSNSLPLTFGGGTKVEIK | 7.5 |
| V2.2 (Y46E) / mVL (antibody, V domains shown, XT-H2 construct expressed in COS cells; also called XT-H2 hVH V2.2 + mVL) VH: QVQLVQSGAEVKKPGASVKVSCKASGYTFTTYWMHWVRQRPGQGLEWIGYINPSTGYTEYNQKFKDRVTMTADTSISTAYMELSRLRSDDTAVYYCARWAGYTIDYWGQGTLVTVSS VL: DVVLTQTPLSLPVNIGDQASISCKSTKSLLNSDGFTYLDWYLQKPGQSPQLLIYLVSDRFSGVPDRFSGSGSGTDFTLTISRVEAEDLGVYYCFQSNSLPLTFGSGTKLEIK | 6 |
| V2.2 (Y46E) / v2.0 (antibody, V domains shown, XT-H2 construct expressed in COS cells; also called XT-H2 hVH V2.2 + hVL V2.0) VH: QVQLVQSGAEVKKPGASVKVSCKASGYTFTTYWMHWVRQRPGQGLEWIGYINPSTGYTEYNQKFKDRVTMTADTSISTAYMELSRLRSDDTAVYYCARWAGYTIDYWGQGTLVTVSS VL: DVVLTQTPLSLSVTPGQPASISCKSTKSLLNSDGFTYLDWYLQKPGQSPQLLIYLVSDRFSGVPDRFSGSGSGTDFTLKISRVEAEDVGVYYCFQSNSLPLTFGGGTKVEIK | 4 |

— patent US20070286858A1 (Pfizer, published 2007)
